Earlier results, collected in article PMC9357288.

Target: Hck SH3 (Homo sapiens) (UniProt P08631)
UniProt P08631, sequence (P08631 75-141): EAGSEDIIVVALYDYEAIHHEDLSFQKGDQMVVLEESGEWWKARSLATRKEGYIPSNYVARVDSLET

Nef (from UniProt P04324)
Kd: 250 nM
